# Like-named read-outs stand apart in the source and are kept apart here.
# B1: Mov19 IgG (antibody, V domains shown)
# VH: QVQLQQSGAELVKPGASVKISCKASGYSFTGYFMNWVKQSHGKSLEWIGRIHPYDGDTFYNQNFKDKATLTVDKSSNTAHMELLSLTSEDFAVYYCTRYDGSRAMDYWGQGTTVTVSS
# VL: DIELTQSPASLAVSLGQRAIISCKASQSVSFAGTSLMHWYHQKPGQQPKLLIYRASNLEAGVPTRFSGSGSKTDFTLNIHPVEEEDAATYYCQQSREYPYTFGGGTKLEIK
# B2: 9D11 IgG (antibody, V domains shown)
# VH: QVQLVQSGAEVKKPGASVKVSCKASGYTFTSYYMHWVRQAPGQGLEWMGIINPSGGPTSYAQKFQGRVTMTRDTSTSTVYMELSSLRSEDTAVYYCARGDFAWLDYWGQGTLVTVSS
# VL: not shown
# notes: human IgG1
# B3: 19E5 IgG (antibody, V domains shown)
# VH: QVQLVQSGAEVKKPGASVKVSCKASGYTFTSYYMHWVRQAPGQGLEWMGIINPSGGSTSYAQKFQGRVTMTRDTSTSTVYMELSSLRSEDTAVYYCARGEWRRYTSFDYWGQGTLVTVSS
# VL: QAVVTQEPSLTVSPGGTVTLTCGSSTGAVTTSNYANWVQEKPGQAFRGLIGGTNKRAPGTPARFSGSLLGGKAALTLSGAQPEDEAEYYCALWYSNLWVFGGGTKLTVL
# notes: human IgG1
# B4: 19A4 IgG (antibody, V domains shown)
# VH: QVQLVQSGAEVKKPGASVKVSCKASGYTFTSYYMHWVRQAPGQGLEWMGIINPSGGSTSYAQKFQGRVTMTRDTSTSTVYMELSSLRSEDTAVYYCARGGWIRWEHFDYWGQGTLVTVSS
# VL: QAVVTQEPSLTVSPGGTVTLTCGSSTGAVTTSNYANWVQEKPGQAFRGLIGGTNKRAPGTPARFSGSLLGGKAALTLSGAQPEDEAEYYCALWYSNLWVFGGGTKLTVL
# notes: human IgG1
# B5: 19H3 IgG (antibody, V domains shown)
# VH: QVQLVQSGAEVKKPGASVKVSCKASGYTFTSYYMHWVRQAPGQGLEWMGIINPSGGSTSYAQKFQGRVTMTRDTSTSTVYMELSSLRSEDTAVYYCARTGWSRWGYMDYWGQGTLVTVSS
# VL: QAVVTQEPSLTVSPGGTVTLTCGSSTGAVTTSNYANWVQEKPGQAFRGLIGGTNKRAPGTPARFSGSLLGGKAALTLSGAQPEDEAEYYCALWYSNLWVFGGGTKLTVL
# notes: human IgG1
# B6: 20H7 IgG (antibody, V domains shown)
# VH: QVQLVQSGAEVKKPGASVKVSCKASGYTFTSYYMHWVRQAPGQGLEWMGIINPSGGSTSYAQKFQGRVTMTRDTSTSTVYMELSSLRSEDTAVYYCARVGWYRWGYMDYWGQGTLVTVSS
# VL: QAVVTQEPSLTVSPGGTVTLTCGSSTGAVTTSNYANWVQEKPGQAFRGLIGGTNKRAPGTPARFSGSLLGGKAALTLSGAQPEDEAEYYCALWYSNLWVFGGGTKLTVL
# notes: human IgG1
# B7: 36F2 IgG (antibody, V domains shown)
# VH: QVQLVQSGAEVKKPGASVKVSCKASGYTFTSYYMHWVRQAPGQGLEWMGIINPSGGSTSYAQKFQGRVTMTHDTSTSTVYMELSSLRSEDTAVYYCARSFFTGFHLDYWGQGTLVTVSS
# VL: EIVLTQSPGTLSLSPGERATLSCRASQSVSSSYLAWYQQKPGQAPRLLIYGASSRATGIPDRFSGSGSGTDFTLTISRLEPEDFAVYYCQQYTNEHYYTFGQGTKVEIK
# notes: human IgG1
# Key:
# human FolR1 on cells [1] = biological target: T1, human FolR1 on cells (human, UniProt P15328 25-234); test: flow cytometry on HeLa cells (human FolR1), fluorescently labeled anti-human secondary antibody
# T1 construct: also called FolR1 on HeLa, SKOV3, HT-29 tumor cells; HEK cells transfected with human FolR1
# Procedure: (§1) Binding of newly generated FolR1 binders to FolR1 expressed on HeLa cells were determined by flow cytometry. Bound antibodies were detected with a fluorescently labeled anti-human secondary antibody.
# (§2) The identified binders were converted into a human IgG1 format and binding to FolR1 high expressing HeLa cells was addressed.
# [2] = biological target: T2, human FolR1 ECD-AcTev-Fcknob-Avi tag + Fc hole, biotinylated monomeric Fc fusion (human, UniProt P0DOX5 223-449 = IgG part); test: SPR, monovalent, antibody captured by anti-Fab
# T2 construct: also called huFolR1; huFolR1-Fc
# Procedure: (§3) Binding of FolR1 binders as IgG or in the T-cell bispecific format to different recombinant folate receptors (human FolR1, 2 and 3, murine FolR1 and cynomolgus FolR1; all as Fc fusions) was assessed by surface plasmon resonance (SPR).
# (§4) For affinity measurement, direct coupling of around 6000-7000 resonance units (RU) of the anti-human Fab specific antibody (Fab capture kit, GE Healthcare) was performed on a CM5 chip at pH5.0 using the standard amine coupling kit (GE Healthcare). Anti-FolR1 IgGs or T cell bispecifics were captured at 20 nM with a flow rate of 10 μl/min for 20 or 40 sec, the reference flow cell was left without capture. […] The dissociation phase was monitored for 240 sand triggered by switching from the sample solution to HBS-EP. The chip surface was regenerated after every cycle using a double injection of 60 sec 10 mM Glycine-HCl pH 2.1 or pH1.5. Bulk refractive index differences were corrected for by subtracting the response obtained on the reference flow cell 1. The affinity constants for the interactions were derived from the rate constants by fitting to a 1:1 Langmuir binding using the Bia Evaluation software (GE Healthcare).
# [3] = biological target: T3, cynomolgus FolR1 ECD-AcTev-Fcknob-Avi tag + Fc hole, biotinylated monomeric Fc fusion (cynomolgus, UniProt P0DOX5 223-449 = IgG part); test: SPR, monovalent, antibody captured by anti-Fab
# T3 construct: also called cyFolR1; cyno FolR1-Fc
# Procedure: as §3, §4
# [4] = biological target: T2, human FolR1 ECD-AcTev-Fcknob-Avi tag + …; test: SPR, bivalent binding (avidity), antigen on SA chip
# Procedure: as §3
# (§5) Recombinant biotinylated monomeric Fc fusions of human, cynomolgus and murine Folate Receptor 1 (FolR1-Fc) were directly coupled on a SA chip using the standard coupling instruction (Biacore, Freiburg/Germany). The immobilization level was about 300-400 RU. The anti-FolR1 IgGs or T cell bispecifics were passed at a concentration range from 2.1 to 500 nM with a flow of 30 μL/minutes through the flow cells over 180 seconds. The dissociation was monitored for 600 seconds. Bulk refractive index differences were corrected for by subtracting the response obtained on reference flow cell immobilized with recombinant biotinylated IL2 receptor Fc fusion. […] The binding curves resulting from the bivalent binding of the IgGs or T cell bispecifics were approximated to a 1:1 Langmuir binding and fitted with that model (which is not correct, but gives an idea of the avidity). The apparent avidity constants for the interactions were derived from the rate constants of the fitting using the Bia Evaluation software (GE Healthcare).
# [5] = biological target: T3, cynomolgus FolR1 ECD-AcTev-Fcknob-Avi …; test: as above
# Procedure: as §3, §5
# [6] = biological target: T2, human FolR1 ECD-AcTev-Fcknob-Avi tag + …; test: SPR, apparent KD, bivalent binding (avidity)
# Procedure: as §3, §5
# [7] = biological target: T3, cynomolgus FolR1 ECD-AcTev-Fcknob-Avi …; test: SPR, apparent KD, bivalent binding (avidity)
# Procedure: as §3, §5
# [8] = biological target: T4, cynomolgus FolR1 on transiently transfected HEK cells (cynomolgus, UniProt P15328 25-234 (human entry)); test: flow cytometry on HEK cells transiently transfected with cyno FolR1, anti-human secondary antibody
# T4 construct: also called cyno FolR1; cyFoLR1
# Source text: Cross-reactivity of the FolR1 antibodies to cyno FolR1 was addressed on HEK cells transiently transfected with cyFolR1 by flow cytometry. The antibodies were detected with a fluorescently labeled anti-human secondary antibody.
# In parallel cross-reactivity of the FolR1 clones to cyno FolR1 was addressed by performing binding studies to HEK cells transiently transfected with cyno FolR1.
# [9] = biological target: T5, human FolR3 ECD-AcTev-Fcknob-Avi tag + Fc hole, biotinylated monomeric Fc fusion (human, UniProt P0DOX5 223-449 = IgG part); test: SPR, IgG single injection
# T5 construct: also called huFolR3; FolR3-Fc
# [10] = biological target: T6, murine FolR1 ECD-AcTev-Fcknob-Avitag + Fc hole, biotinylated monomeric Fc fusion (murine, UniProt P0DOX5 223-449 = IgG part); test: SPR, IgG single injection
# T6 construct: also called muFolR1; murine FolR1-Fc
# [11] = biological target: T7, human FolR2 ECD-AcTev-Fcknob-Avi tag + Fc hole, biotinylated monomeric Fc fusion (human, UniProt P0DOX5 223-449 = IgG part); test: SPR, IgG single injection
# T7 construct: also called huFolR2; FolR2-Fc
# [12] = biological target: T8, human FolR2 on transiently transfected HEK cells (human, UniProt P14207 17-230); test: flow cytometry on HEK cells transiently transfected with human FolR2, anti-human secondary antibody; concentration not given
# human FolR1 on cells [13] = biological target: T1, human FolR1 on cells; test: flow cytometry on HeLa cells (human FolR1), fluorescently labeled anti-human secondary antibody; remark: listed apart in the source
# Procedure: as §1, §2
# [14] = biological target: T8, human FolR2 on transiently transfected …; test: flow cytometry on HEK cells transiently transfected with human FolR2, anti-human secondary antibody; concentration not given; remark: listed apart in the source
# human FolR1 on cells [15] = biological target: T1, human FolR1 on cells; test: flow cytometry on HEK cells transiently transfected with human FolR1, anti-human secondary antibody; concentration not given
# [16] = biological target: T2, human FolR1 ECD-AcTev-Fcknob-Avi tag + …; test: SPR, IgG single injection
# [17] = biological target: T3, cynomolgus FolR1 ECD-AcTev-Fcknob-Avi …; test: SPR, IgG single injection
# [18] = biological target: T6, murine FolR1 ECD-AcTev-Fcknob-Avitag + …; test: SPR, apparent KD, bivalent binding, 2.3 uM folate in running buffer
# Procedure: as §3, §5
# human FolR1 on cells [19] = biological target: T1, human FolR1 on cells; test: flow cytometry on HeLa cells (human FolR1), fluorescently labeled anti-human secondary antibody; remark: listed apart in the source
# Procedure: as §1, §2
# [20] = biological target: T6, murine FolR1 ECD-AcTev-Fcknob-Avitag + …; test: SPR, 500 nM IgG single injection
# [21] = biological target: T6, murine FolR1 ECD-AcTev-Fcknob-Avitag + …; test: SPR, bivalent binding (avidity), antigen on SA chip
# Procedure: as §3, §5
# [22] = biological target: T6, murine FolR1 ECD-AcTev-Fcknob-Avitag + …; test: SPR, apparent KD, bivalent binding (avidity)
# Procedure: as §3, §5
# T8 sequence (P14207 17-230 limits assumed): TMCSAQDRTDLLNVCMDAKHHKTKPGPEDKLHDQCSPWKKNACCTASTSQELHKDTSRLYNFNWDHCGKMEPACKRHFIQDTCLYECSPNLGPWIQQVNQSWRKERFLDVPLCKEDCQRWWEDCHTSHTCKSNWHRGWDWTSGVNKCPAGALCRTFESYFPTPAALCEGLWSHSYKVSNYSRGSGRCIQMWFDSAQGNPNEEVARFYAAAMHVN
# T1 sequence (P15328 25-234 limits assumed): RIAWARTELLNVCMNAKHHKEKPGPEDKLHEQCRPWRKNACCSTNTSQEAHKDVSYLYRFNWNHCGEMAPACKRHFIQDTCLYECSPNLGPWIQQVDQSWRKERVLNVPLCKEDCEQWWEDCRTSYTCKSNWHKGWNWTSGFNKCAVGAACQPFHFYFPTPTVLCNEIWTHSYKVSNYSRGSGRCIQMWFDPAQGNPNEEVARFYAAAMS
# T4 sequence (P15328 other isoform, or with tags, fused parts or gaps limits assumed): as the sequence (P15328 25-234 limits assumed) above, with I2T, W4R, R37K, Q117R, A146P, H171Y counted along it
binder,measurement,setting,value
B1,EC50 (read off the curve),human FolR1 on cells [1],~1 µg/mL
same,Kd,[2],0.55 nM
same,koff,[2],0.000159 s⁻¹
same,kon,[2],289000 M⁻¹ s⁻¹
same,Kd,[3],0.65 nM
same,koff,[3],0.000193 s⁻¹
same,kon,[3],297000 M⁻¹ s⁻¹
same,koff,[4],0.000121 s⁻¹
same,kon,[4],861000 M⁻¹ s⁻¹
same,koff,[5],0.000139 s⁻¹
same,kon,[5],1.29e+06 M⁻¹ s⁻¹
same,Kd,[6],0.14 nM
same,Kd,[7],0.108 nM
B2,binding result,[8],binds
same,binding result,[9],no binding (tested: 500 nM)
same,binding result,[10],no binding (tested: 500 nM)
same,binding result,[11],no binding (tested: 500 nM)
same,binding result,[12],no binding
same,binding result,human FolR1 on cells [13],binds
B3,EC50 (read off the curve),human FolR1 on cells [1],~2 µg/mL
same,binding result,[14],binds
B4,binding result,[14],binds
same,binding result,human FolR1 on cells [15],binds
B5,binding result,[16],no binding (tested: 500 nM)
same,binding result,[9],no binding (tested: 500 nM)
same,binding result,[17],no binding (tested: 500 nM)
same,binding result,[11],no binding (tested: 500 nM)
same,Kd,[18],1.55 nM
same,binding result,human FolR1 on cells [19],binds
B6,binding result,[20],binds
same,binding result,[9],no binding (tested: 500 nM)
same,binding result,[11],no binding (tested: 500 nM)
B7,koff,[4],0.0151 s⁻¹
same,kon,[4],2.62e+06 M⁻¹ s⁻¹
same,koff,[5],0.016 s⁻¹
same,kon,[5],3.02e+06 M⁻¹ s⁻¹
same,koff,[21],0.000603 s⁻¹
same,kon,[21],370000 M⁻¹ s⁻¹
same,binding result,[8],binds
same,binding result,[9],no binding (tested: 500 nM)
same,binding result,[11],no binding (tested: 500 nM)
same,binding result,[12],no binding
same,Kd,[6],5.74 nM
same,Kd,[7],5.31 nM
same,Kd,[22],1.63 nM
same,binding result,human FolR1 on cells [13],binds

# From patent publication US20210087291A1 (Hoffmann-La Roche, published 2021)
